Numbering of substitutions follows the chain as printed. Where two headings read alike, the source gives them in different places.
B1: M13 phage pKK136 displaying MICA α3 domain with extended 5.1sp in loop 1 and extended 3.2sp in loop 3 (designed binder, not shown: large carriers)
chain: TVPPMVNVTSGGSGGGSVTRGDTFTQSSGGSGGGVTCRASGFYPWNITLSWRQDGVSLSHDTQQWGDVLPDGNGTYQTWVATRISGGSGGGSTSRGDHPRTQSGGSGGGCYMEHSGNHSTHPVPSGK
B2: M13 phage pKK138 displaying MICA α3 domain with extended 5.1sp in loop 1 and extended 5.3sp in loop 3 (designed binder, not shown: large carriers)
chain: B1 chain with T93H, S94L, R95A, G96R, D97G, H98D, P99D, R100L, Q102Y
B3: M13 phage pKK139 displaying MICA α3 domain with extended 5.1sp in loop 1 and extended 5.1spNH in loop 3 (designed binder, not shown: large carriers)
chain: B1 chain with T93V, S94T, H98T, P99F, R100T, T101Q, Q102S
B4: M13 phage pKK103 displaying MICA α3 domain with extended loop 5.3sp in loop 1 (designed binder, not shown: large carriers)
chain: TVPPMVNVTSGGSGGGSHLARGDDLTYSGGSGGGVTCRASGFYPWNITLSWRQDGVSLSHDTQQWGDVLPDGNGTYQTWVATRICQGEEQRFTCYMEHSGNHSTHPVPSGK
B5: soluble MICA generated by pKK46 (extended loop 5.1sp in loop 1) (designed binder)
chain: HHHHHHEPHSLRYNLTVLSWDGSVQSGFLTEVHLDGQPFLRCDRQKCRAKPQGQWAEDVLGNKTWDRETRDLTGNGKDLRMTLAHIKDQKEGLHSLQEIRVCEIHEDNSTRSSQHFYYDGELFLSQNLETEEWTMPQSSRAQTLAMNVRNFLKEDAMKTKTHYHAMHADCLQELRRYLKSGVVLRRTVPPMVNVTSGGSGGGSVTRGDTFTQSSGGSGGGVTCRASGFYPWNITLSWRQDGVSLSHDTQQWGDVLPDGNGTYQTWVATRICQGEEQRFTCYMEHSGNHSTHPVPSGK
B6: M13 phage pKK112 displaying MICA α3 domain with tight T-AMY (loop 1 from tendamistat) in loop 1 (designed binder, not shown: large carriers)
chain: TVPPMVNYQSWRYSQCRASGFYPWNITLSWRQDGVSLSHDTQQWGDVLPDGNGTYQTWVATRICQGEEQRFTCYMEHSGNHSTHPVPSGK
B7: M13 phage pKK106 displaying wild type MICA α3 domain fused to pIII (other)
chain: TVPPMVNVTRSEASEGNITVTCRASGFYPWNITLSWRQDGVSLSHDTQQWGDVLPDGNGTYQTWVATRICQGEEQRFTCYMEHSGNHSTHPVPSGK
notes: also called WT; not shown: M13 phage capsid protein pIII, C-terminal portion, fused at codon position 198
B8: M13 phage pKK107 displaying MICA α3 domain with tight T-3.1 in loop 1 (designed binder, not shown: large carriers)
chain: TVPPMVNTSRGDHPRTQCRASGFYPWNITLSWRQDGVSLSHDTQQWGDVLPDGNGTYQTWVATRICQGEEQRFTCYMEHSGNHSTHPVPSGK
B9: M13 phage pKK108 displaying MICA α3 domain with tight T-3.5 in loop 1 (designed binder)
chain: B8 chain with T8G, H13S, P14L, R15I, T16M, Q17H
notes: α3 amplified from pKK53; also called 1-T-3.5; not shown: M13 phage capsid protein pIII, C-terminal portion, fused at codon position 198
B10: M13 phage pKK109 displaying MICA α3 domain with tight T-3.3 in loop 1 (designed binder, not shown: large carriers)
chain: B8 chain with T8R, S9V, R10P, G11R, D12G, H13D, P14S, R15D, T16L, Q17T
B11: M13 phage pKK110 displaying MICA α3 domain with tight T-5.1 in loop 1 (designed binder, not shown: large carriers)
chain: B8 chain with T8V, S9T, H13T, P14F, R15T, T16Q, Q17S
B12: M13 phage pKK111 displaying MICA α3 domain with tight T-5.3 in loop 1 (designed binder, not shown: large carriers)
chain: B8 chain with T8H, S9L, R10A, G11R, D12G, H13D, P14D, R15L, Q17Y
B13: M13 phage pKK104 displaying MICA α3 domain with extended loop 3.2sp in loop 3 (designed binder, not shown: large carriers)
chain: TVPPMVNVTRSEASEGNITVTCRASGFYPWNITLSWRQDGVSLSHDTQQWGDVLPDGNGTYQTWVATRISGGSGGGSTSRGDHPRTQSGGSGGGCYMEHSGNHSTHPVPSGK
B14: M13 phage pKK105 displaying MICA α3 domain with extended loop 3.3sp in loop 3 (designed binder, not shown: large carriers)
chain: B13 chain with T78R, S79V, R80P, G81R, D82G, H83D, P84S, R85D, T86L, Q87T

Tests used:
[1] = target: T1, integrin αVβ5 (UniProt P06756 31-992; P18084 24-719); assay: phage ELISA, integrin coated, anti-M13-HRP
T1 construct: Coated on the ELISA plate

[2] = target: T2, integrin αVβ3 (UniProt P06756 31-992; P05106 27-718); assay: phage ELISA, integrin coated, anti-M13-HRP
T2 construct: Coated on the ELISA plate

[3] = target: T1, integrin αVβ5; assay: ELISA, integrin coated, anti-MICA-HRP
[4] = target: T2, integrin αVβ3; assay: ELISA, integrin coated, anti-MICA-HRP
[5] = target: T1, integrin αVβ5; assay: ELISA, integrin coated, anti-MICA-HRP; remark: listed apart in the source
[6] = target: T2, integrin αVβ3; assay: ELISA, integrin coated, anti-MICA-HRP; remark: listed apart in the source

T1 sequence (P06756 31-992, chain 1 of 2): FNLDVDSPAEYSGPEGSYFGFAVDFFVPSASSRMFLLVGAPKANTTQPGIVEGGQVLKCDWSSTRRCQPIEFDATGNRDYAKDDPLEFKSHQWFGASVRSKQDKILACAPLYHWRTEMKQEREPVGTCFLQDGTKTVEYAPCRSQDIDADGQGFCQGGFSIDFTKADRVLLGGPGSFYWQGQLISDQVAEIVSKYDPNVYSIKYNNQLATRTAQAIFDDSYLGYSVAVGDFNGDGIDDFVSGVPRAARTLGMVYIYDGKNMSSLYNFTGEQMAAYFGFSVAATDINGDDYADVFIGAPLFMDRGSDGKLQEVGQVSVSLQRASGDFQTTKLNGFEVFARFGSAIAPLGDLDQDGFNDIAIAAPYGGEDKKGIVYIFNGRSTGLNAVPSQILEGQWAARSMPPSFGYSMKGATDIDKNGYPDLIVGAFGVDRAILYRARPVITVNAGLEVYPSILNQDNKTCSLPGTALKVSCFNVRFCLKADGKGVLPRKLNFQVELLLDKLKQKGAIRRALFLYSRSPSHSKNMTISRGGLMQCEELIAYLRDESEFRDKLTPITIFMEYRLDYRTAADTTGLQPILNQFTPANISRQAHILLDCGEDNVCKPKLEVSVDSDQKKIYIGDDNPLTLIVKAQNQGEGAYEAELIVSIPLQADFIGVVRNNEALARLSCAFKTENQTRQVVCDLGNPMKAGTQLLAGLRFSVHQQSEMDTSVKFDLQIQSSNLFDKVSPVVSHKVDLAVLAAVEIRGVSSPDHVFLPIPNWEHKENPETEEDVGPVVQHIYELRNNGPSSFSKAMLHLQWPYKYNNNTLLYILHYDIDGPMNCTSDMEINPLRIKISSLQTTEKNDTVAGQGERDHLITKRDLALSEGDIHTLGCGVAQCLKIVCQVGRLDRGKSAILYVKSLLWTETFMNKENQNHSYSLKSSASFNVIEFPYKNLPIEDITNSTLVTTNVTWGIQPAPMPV
T1 sequence (P18084 24-719, chain 2 of 2): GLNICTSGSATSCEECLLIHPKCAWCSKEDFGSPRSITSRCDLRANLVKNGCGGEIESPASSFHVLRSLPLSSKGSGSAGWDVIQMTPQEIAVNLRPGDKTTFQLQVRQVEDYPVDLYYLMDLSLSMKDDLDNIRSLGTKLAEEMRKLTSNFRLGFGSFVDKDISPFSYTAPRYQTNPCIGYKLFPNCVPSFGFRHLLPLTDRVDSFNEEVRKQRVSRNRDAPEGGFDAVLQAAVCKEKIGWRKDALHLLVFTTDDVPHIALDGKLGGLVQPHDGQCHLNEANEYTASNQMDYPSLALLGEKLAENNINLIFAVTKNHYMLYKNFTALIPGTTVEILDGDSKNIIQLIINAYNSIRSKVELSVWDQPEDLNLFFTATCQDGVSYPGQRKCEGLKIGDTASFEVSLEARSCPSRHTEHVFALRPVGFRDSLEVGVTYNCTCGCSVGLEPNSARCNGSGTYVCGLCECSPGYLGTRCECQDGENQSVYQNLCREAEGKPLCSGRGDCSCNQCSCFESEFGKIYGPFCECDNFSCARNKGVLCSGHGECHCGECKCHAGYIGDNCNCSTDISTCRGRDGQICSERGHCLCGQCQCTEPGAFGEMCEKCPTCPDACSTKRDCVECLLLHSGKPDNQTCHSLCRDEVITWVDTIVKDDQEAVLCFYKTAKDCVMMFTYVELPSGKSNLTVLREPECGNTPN
T2 sequence (P06756 31-992, chain 1 of 2): as the sequence (P06756 31-992, chain 1 of 2) above
T2 sequence (P05106 27-718, chain 2 of 2): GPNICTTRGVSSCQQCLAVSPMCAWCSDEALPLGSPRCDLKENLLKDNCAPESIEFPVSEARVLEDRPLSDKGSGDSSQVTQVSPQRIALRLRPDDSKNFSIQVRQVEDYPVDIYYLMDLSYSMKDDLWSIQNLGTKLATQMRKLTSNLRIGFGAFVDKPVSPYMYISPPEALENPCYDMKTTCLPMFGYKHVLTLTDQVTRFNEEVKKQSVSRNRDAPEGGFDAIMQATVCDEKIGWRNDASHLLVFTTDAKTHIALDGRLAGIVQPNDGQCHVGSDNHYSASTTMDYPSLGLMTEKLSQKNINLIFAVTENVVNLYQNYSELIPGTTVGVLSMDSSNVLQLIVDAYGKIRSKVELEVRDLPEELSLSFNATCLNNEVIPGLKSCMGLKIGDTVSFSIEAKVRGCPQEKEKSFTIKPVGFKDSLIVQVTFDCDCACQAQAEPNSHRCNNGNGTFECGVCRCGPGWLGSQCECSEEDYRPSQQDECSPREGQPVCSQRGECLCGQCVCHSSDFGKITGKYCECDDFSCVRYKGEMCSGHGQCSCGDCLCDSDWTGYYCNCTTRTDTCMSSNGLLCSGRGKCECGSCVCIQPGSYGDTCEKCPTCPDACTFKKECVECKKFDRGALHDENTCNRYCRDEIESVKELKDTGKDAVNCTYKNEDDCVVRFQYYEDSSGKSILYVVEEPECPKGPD

Row | Binder | signal [1] [OD] | signal [2] [OD] | also measured
1 | B1 | 4.28 | 2.46 | –
2 | B2 | 2.75 | 0.886 | –
3 | B3 | 5.36 | 2.48 | –
4 | B4 | 0.491 | 0.688 | signal ([1]; record 2): 0.814 OD; signal ([2]; record 2): 0.587 OD
5 | B5 | – | – | signal [3]: 0.66 OD; signal/ng [3]: 13.3 signal/ng; signal [4]: 0.467 OD; signal/ng [4]: 9.42 signal/ng; signal [5]: 1.06 OD; signal/ng [5]: 25.5 signal/ng; signal [6]: 0.384 OD; signal/ng [6]: 9.2 signal/ng
6 | B6 | 0.515 | 0.46 | –
7 | B7 | 0 | 0 | –
8 | B8 | 1.49 | 0.999 | –
9 | B9 | -0.204 | -0.09 | –
10 | B10 | 0.167 | 0.23 | –
11 | B11 | 2.56 | 1.49 | –
12 | B12 | 0.657 | 0.707 | –
13 | B13 | 1.12 | 0.791 | –
14 | B14 | 1.11 | 1.33 | –

Reference: EP2658867B1 (Avidbiotics Corp., dated 2018)
